{"source": "patent US5455329A", "about": "“DNA sequences coding for PTH variants, PTH variants, expression vector, bacterial host, use and therapeutic composition” (Gesellschaft fur Biotechnologische Forschung mbH (GBF), priority 1989, dated 1995)", "key": {"[1]": {"tested_on": "embryonal chicken chondrocytes", "test": "Increase of DNA synthesis of embryonal chicken chondrocytes", "type": "cell-based", "conditions": "for DNA synthesis (%) relative activity: relative to recombinant hPTH (=100), stimulation beyond the base level, chondrocytes; for Effect on stimulation of DNA synthesis (in words, group classification): qualitative, versus wild type PTH", "experimental": "They were also tested for their ability, according to DE-A-37 25 319.0 and DE-A-37 25 320.4, to increase the DNA synthesis of embryonal chicken chondrocytes."}, "[2]": {"tested_on": "adenylate cyclase in isolated membranes of porcine adrenal cortices", "test": "Stimulation of adenylate cyclase in isolated membranes, in vitro test according to Mohr and Hesch", "type": "biochemical", "conditions": "for Adenylate cyclase (%) relative activity: relative to recombinant hPTH (=100), stimulation beyond the base level; for Effect on adenylate cyclase stimulation (in words, group classification): qualitative, versus wild type PTH", "experimental": "The PTH variants so obtained were tested for their ability to stimulate adenylate cyclase in isolated membranes of porcine adrenal cortices in an in vitro test according to Mohr and Hesch (Biochem. J., 188 (1980) 649-656) ."}}, "data": [{"molecule": "rec-hPTH: recombinant human parathyroid hormone wild type, lengthened N-terminally by one proline residue; reference = 100 % [reference compound]", "values": [{"measurement": "DNA synthesis (%) relative activity", "setting": "[1]", "value": 100, "unit": "%"}, {"measurement": "Adenylate cyclase (%) relative activity", "setting": "[2]", "value": 100, "unit": "%"}]}, {"molecule": "Q29N: hPTH variant Gln(29) -> Asn(29), lengthened N-terminally by one proline (protein, UniProt P01270 32-115, looked up, variant Q29N, Parathyroid hormone N-terminal proline extension, hPTH variant Gln(29) -> Asn(29), lengthened N-terminally by one proline) Parathyroid hormone: SVSEIQLMHNLGKHLNSMERVEWLRKKLNDVHNFVALGAPLAPRDAGSQRPRKKEDNVLVESHEKSLGEADKADVNVLTKAKSQ", "values": [{"measurement": "Effect on stimulation of DNA synthesis (in words, group classification)", "setting": "[1]", "value": "maintain the stimulation"}, {"measurement": "DNA synthesis (%) relative activity", "setting": "[1]", "value": 95, "unit": "%"}, {"measurement": "Effect on adenylate cyclase stimulation (in words, group classification)", "setting": "[2]", "value": "maintain the stimulation"}, {"measurement": "Adenylate cyclase (%) relative activity", "setting": "[2]", "value": 99, "unit": "%"}]}, {"molecule": "R20E: hPTH variant Arg(20) -> Glu(20), lengthened N-terminally by one proline (protein, UniProt P01270 32-115, looked up, variant R20E, Parathyroid hormone N-terminal proline extension, hPTH variant Arg(20) -> Glu(20), lengthened N-terminally by one proline) Parathyroid hormone: SVSEIQLMHNLGKHLNSMEEVEWLRKKLQDVHNFVALGAPLAPRDAGSQRPRKKEDNVLVESHEKSLGEADKADVNVLTKAKSQ", "values": [{"measurement": "Effect on stimulation of DNA synthesis (in words, group classification)", "setting": "[1]", "value": "unaffected DNA synthesis"}, {"measurement": "DNA synthesis (%) relative activity", "setting": "[1]", "value": 0, "unit": "%"}, {"measurement": "Effect on adenylate cyclase stimulation (in words, group classification)", "setting": "[2]", "value": "significant reduction in adenylate cyclase stimulation"}, {"measurement": "Adenylate cyclase (%) relative activity", "setting": "[2]", "value": 0, "unit": "%"}]}, {"molecule": "L11K: hPTH variant Leu(11) -> Lys(11), lengthened N-terminally by one proline (protein, UniProt P01270 32-115, looked up, variant L11K, Parathyroid hormone N-terminal proline extension, hPTH variant Leu(11) -> Lys(11), lengthened N-terminally by one proline) Parathyroid hormone: SVSEIQLMHNKGKHLNSMERVEWLRKKLQDVHNFVALGAPLAPRDAGSQRPRKKEDNVLVESHEKSLGEADKADVNVLTKAKSQ", "values": [{"measurement": "Effect on stimulation of DNA synthesis (in words, group classification)", "setting": "[1]", "value": "reduce that of DNA synthesis"}, {"measurement": "DNA synthesis (%) relative activity", "setting": "[1]", "value": 21, "unit": "%"}, {"measurement": "Effect on adenylate cyclase stimulation (in words, group classification)", "setting": "[2]", "value": "maintain the stimulation of adenylate cyclase"}, {"measurement": "Adenylate cyclase (%) relative activity", "setting": "[2]", "value": 89, "unit": "%"}]}, {"molecule": "H32R: hPTH variant His(32) -> Arg(32), lengthened N-terminally by one proline (protein, UniProt P01270 32-115, looked up, variant H32R, Parathyroid hormone N-terminal proline extension, hPTH variant His(32) -> Arg(32), lengthened N-terminally by one proline) Parathyroid hormone: SVSEIQLMHNLGKHLNSMERVEWLRKKLQDVRNFVALGAPLAPRDAGSQRPRKKEDNVLVESHEKSLGEADKADVNVLTKAKSQ", "values": [{"measurement": "Effect on stimulation of DNA synthesis (in words, group classification)", "setting": "[1]", "value": "significant reduction in the stimulation of DNA synthesis"}, {"measurement": "DNA synthesis (%) relative activity", "setting": "[1]", "value": 36, "unit": "%"}, {"measurement": "Effect on adenylate cyclase stimulation (in words, group classification)", "setting": "[2]", "value": "substantial retention of the effect on adenylate cyclase"}, {"measurement": "Adenylate cyclase (%) relative activity", "setting": "[2]", "value": 87, "unit": "%"}]}, {"molecule": "K27R: hPTH variant Lys(27) -> Arg(27), lengthened N-terminally by one proline (protein, UniProt P01270 32-115, looked up, variant K27R, Parathyroid hormone N-terminal proline extension, hPTH variant Lys(27) -> Arg(27), lengthened N-terminally by one proline) Parathyroid hormone: SVSEIQLMHNLGKHLNSMERVEWLRKRLQDVHNFVALGAPLAPRDAGSQRPRKKEDNVLVESHEKSLGEADKADVNVLTKAKSQ", "values": [{"measurement": "Effect on stimulation of DNA synthesis (in words, group classification)", "setting": "[1]", "value": "maintain the stimulation"}, {"measurement": "DNA synthesis (%) relative activity", "setting": "[1]", "value": 81, "unit": "%"}, {"measurement": "Effect on adenylate cyclase stimulation (in words, group classification)", "setting": "[2]", "value": "maintain the stimulation"}, {"measurement": "Adenylate cyclase (%) relative activity", "setting": "[2]", "value": 90, "unit": "%"}]}, {"molecule": "K27L: hPTH variant Lys(27) -> Leu(27), lengthened N-terminally by one proline (protein, UniProt P01270 32-115, looked up, variant K27L, Parathyroid hormone N-terminal proline extension, hPTH variant Lys(27) -> Leu(27), lengthened N-terminally by one proline) Parathyroid hormone: SVSEIQLMHNLGKHLNSMERVEWLRKLLQDVHNFVALGAPLAPRDAGSQRPRKKEDNVLVESHEKSLGEADKADVNVLTKAKSQ", "values": [{"measurement": "Effect on stimulation of DNA synthesis (in words, group classification)", "setting": "[1]", "value": "increase in DNA synthesis"}, {"measurement": "DNA synthesis (%) relative activity", "setting": "[1]", "value": 70, "unit": "%"}, {"measurement": "Effect on adenylate cyclase stimulation (in words, group classification)", "setting": "[2]", "value": "significant reduction in adenylate cyclase stimulation"}, {"measurement": "Adenylate cyclase (%) relative activity", "setting": "[2]", "value": 35, "unit": "%"}]}, {"molecule": "E4R, R20E: hPTH variant Glu(4) Arg(20) -> Arg(4), Glu(20), lengthened N-terminally by one proline (protein, UniProt P01270 32-115, looked up, variant E4R R20E, Parathyroid hormone N-terminal proline extension, hPTH variant Glu(4) Arg(20) -> Arg(4), Glu(20), lengthened N-terminally by one proline) Parathyroid hormone: SVSRIQLMHNLGKHLNSMEEVEWLRKKLQDVHNFVALGAPLAPRDAGSQRPRKKEDNVLVESHEKSLGEADKADVNVLTKAKSQ", "values": [{"measurement": "Effect on stimulation of DNA synthesis (in words, group classification)", "setting": "[1]", "value": "increase in DNA synthesis"}, {"measurement": "DNA synthesis (%) relative activity", "setting": "[1]", "value": 58, "unit": "%"}, {"measurement": "Effect on adenylate cyclase stimulation (in words, group classification)", "setting": "[2]", "value": "significant reduction in adenylate cyclase stimulation"}, {"measurement": "Adenylate cyclase (%) relative activity", "setting": "[2]", "value": 20, "unit": "%"}]}, {"molecule": "K13P: hPTH variant Lys(13) -> Pro(13), lengthened N-terminally by one proline (protein, UniProt P01270 32-115, looked up, variant K13P, Parathyroid hormone N-terminal proline extension, hPTH variant Lys(13) -> Pro(13), lengthened N-terminally by one proline) Parathyroid hormone: SVSEIQLMHNLGPHLNSMERVEWLRKKLQDVHNFVALGAPLAPRDAGSQRPRKKEDNVLVESHEKSLGEADKADVNVLTKAKSQ", "values": [{"measurement": "Effect on stimulation of DNA synthesis (in words, group classification)", "setting": "[1]", "value": "increase in DNA synthesis"}, {"measurement": "DNA synthesis (%) relative activity", "setting": "[1]", "value": 88, "unit": "%"}, {"measurement": "Effect on adenylate cyclase stimulation (in words, group classification)", "setting": "[2]", "value": "significant reduction in adenylate cyclase stimulation"}, {"measurement": "Adenylate cyclase (%) relative activity", "setting": "[2]", "value": 6, "unit": "%"}]}, {"molecule": "H32L: hPTH variant His(32) -> Leu(32), lengthened N-terminally by one proline (protein, UniProt P01270 32-115, looked up, variant H32L, Parathyroid hormone N-terminal proline extension, hPTH variant His(32) -> Leu(32), lengthened N-terminally by one proline) Parathyroid hormone: SVSEIQLMHNLGKHLNSMERVEWLRKKLQDVLNFVALGAPLAPRDAGSQRPRKKEDNVLVESHEKSLGEADKADVNVLTKAKSQ", "values": [{"measurement": "Effect on stimulation of DNA synthesis (in words, group classification)", "setting": "[1]", "value": "significant reduction in the stimulation of DNA synthesis"}, {"measurement": "DNA synthesis (%) relative activity", "setting": "[1]", "value": 11, "unit": "%"}, {"measurement": "Effect on adenylate cyclase stimulation (in words, group classification)", "setting": "[2]", "value": "substantial retention of the effect on adenylate cyclase"}, {"measurement": "Adenylate cyclase (%) relative activity", "setting": "[2]", "value": 93, "unit": "%"}]}, {"molecule": "Q29A: hPTH variant Gln(29) -> Ala(29), lengthened N-terminally by one proline (protein, UniProt P01270 32-115, looked up, variant Q29A, Parathyroid hormone N-terminal proline extension, hPTH variant Gln(29) -> Ala(29), lengthened N-terminally by one proline) Parathyroid hormone: SVSEIQLMHNLGKHLNSMERVEWLRKKLADVHNFVALGAPLAPRDAGSQRPRKKEDNVLVESHEKSLGEADKADVNVLTKAKSQ", "values": [{"measurement": "Effect on stimulation of DNA synthesis (in words, group classification)", "setting": "[1]", "value": "significant reduction in the stimulation of DNA synthesis"}, {"measurement": "DNA synthesis (%) relative activity", "setting": "[1]", "value": 8, "unit": "%"}, {"measurement": "Effect on adenylate cyclase stimulation (in words, group classification)", "setting": "[2]", "value": "substantial retention of the effect on adenylate cyclase"}, {"measurement": "Adenylate cyclase (%) relative activity", "setting": "[2]", "value": 104, "unit": "%"}]}, {"molecule": "H32K: hPTH variant His(32) -> Lys(32), lengthened N-terminally by one proline (protein, UniProt P01270 32-115, looked up, variant H32K, Parathyroid hormone N-terminal proline extension, hPTH variant His(32) -> Lys(32), lengthened N-terminally by one proline) Parathyroid hormone: SVSEIQLMHNLGKHLNSMERVEWLRKKLQDVKNFVALGAPLAPRDAGSQRPRKKEDNVLVESHEKSLGEADKADVNVLTKAKSQ", "values": [{"measurement": "Effect on stimulation of DNA synthesis (in words, group classification)", "setting": "[1]", "value": "significant reduction in the stimulation of DNA synthesis"}, {"measurement": "DNA synthesis (%) relative activity", "setting": "[1]", "value": 22, "unit": "%"}, {"measurement": "Effect on adenylate cyclase stimulation (in words, group classification)", "setting": "[2]", "value": "substantial retention of the effect on adenylate cyclase"}, {"measurement": "Adenylate cyclase (%) relative activity", "setting": "[2]", "value": 85, "unit": "%"}]}, {"molecule": "E4R: hPTH variant Glu(4) -> Arg(4), lengthened N-terminally by one proline (protein, UniProt P01270 32-115, looked up, variant E4R, Parathyroid hormone N-terminal proline extension, hPTH variant Glu(4) -> Arg(4), lengthened N-terminally by one proline) Parathyroid hormone: SVSRIQLMHNLGKHLNSMERVEWLRKKLQDVHNFVALGAPLAPRDAGSQRPRKKEDNVLVESHEKSLGEADKADVNVLTKAKSQ", "values": [{"measurement": "Effect on stimulation of DNA synthesis (in words, group classification)", "setting": "[1]", "value": "increase in DNA synthesis"}, {"measurement": "DNA synthesis (%) relative activity", "setting": "[1]", "value": 88, "unit": "%"}, {"measurement": "Effect on adenylate cyclase stimulation (in words, group classification)", "setting": "[2]", "value": "significant reduction in adenylate cyclase stimulation"}, {"measurement": "Adenylate cyclase (%) relative activity", "setting": "[2]", "value": 47, "unit": "%"}]}]}
